Columns and labels:
[1] = biological target: T1, extracellular domain of human receptor β-Klotho with a C-terminal Poly-His tag (human, UniProt Q86Z14 1-996); experiment: SPR, Biacore-8K; His-tagged β-Klotho ECD on NTA chip, FGF21 mutant as analyte, kinetic fit
T1 construct: extracellular domain; Immobilised on an NTA chip at 1,000 RU; also called human β-Klotho protein; KLB; not shown: Poly-His tag at the C-terminus
T1 sequence (looked up): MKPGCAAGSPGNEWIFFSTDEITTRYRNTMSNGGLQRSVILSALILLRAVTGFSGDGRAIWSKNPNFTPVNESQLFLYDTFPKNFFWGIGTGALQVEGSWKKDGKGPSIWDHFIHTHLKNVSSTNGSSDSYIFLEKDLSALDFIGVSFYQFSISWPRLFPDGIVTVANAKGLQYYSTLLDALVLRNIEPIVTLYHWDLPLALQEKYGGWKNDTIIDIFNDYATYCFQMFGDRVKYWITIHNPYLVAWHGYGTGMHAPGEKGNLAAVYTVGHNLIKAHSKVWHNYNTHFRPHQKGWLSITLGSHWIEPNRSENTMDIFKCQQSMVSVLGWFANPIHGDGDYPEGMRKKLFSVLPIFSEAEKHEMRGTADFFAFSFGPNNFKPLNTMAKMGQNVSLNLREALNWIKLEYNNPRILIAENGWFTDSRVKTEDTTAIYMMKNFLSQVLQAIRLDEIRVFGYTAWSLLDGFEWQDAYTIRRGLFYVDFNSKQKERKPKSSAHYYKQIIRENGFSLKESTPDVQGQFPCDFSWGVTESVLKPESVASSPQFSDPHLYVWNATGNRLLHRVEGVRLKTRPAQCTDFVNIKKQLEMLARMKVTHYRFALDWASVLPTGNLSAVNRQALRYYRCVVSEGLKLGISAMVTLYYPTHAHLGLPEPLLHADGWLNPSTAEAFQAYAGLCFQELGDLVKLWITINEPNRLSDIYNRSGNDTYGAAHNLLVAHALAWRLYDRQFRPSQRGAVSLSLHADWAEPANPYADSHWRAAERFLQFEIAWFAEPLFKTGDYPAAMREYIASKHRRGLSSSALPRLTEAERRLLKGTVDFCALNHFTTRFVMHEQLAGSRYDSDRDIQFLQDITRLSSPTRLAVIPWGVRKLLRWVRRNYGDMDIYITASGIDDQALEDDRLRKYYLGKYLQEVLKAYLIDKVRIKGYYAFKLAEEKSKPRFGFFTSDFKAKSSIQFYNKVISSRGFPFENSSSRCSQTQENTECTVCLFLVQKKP
Procedure: An extracellular domain of a human receptor β-Klotho (a Poly-His tag was fused at a C-terminus) was expressed and purified in the present disclosure, and a sequence of the protein was acquired from the Uniprot database. An affinity assay was conducted with Biacore-8K. Specifically, a human β-Klotho protein was immobilized on an NTA chip at a fixed amount of 1,000 RU with PBS (including 0.05% Tween-20) as a flow buffer. An FGF21 mutant was allowed to flow through the chip at different concentrations to determine the binding of the FGF21 mutant to β-Klotho. Final data were fitted using kinetics, and a dissociation constant KD was calculated.

[2] = biological target: β-Klotho overexpressed on HEK293 cells; experiment: cell-based or functional assay

B1: FGF21 (170C/Ins-172G/173C) mutant 1409 (ligand)
chain: HPIPDSSPLLQFGGQVRQRYLYTDDAQQTEAHLEIREDGTVGGAADQSPESLLQLKALKPGVIQILGVKTSRFLCQRPDGALYGSLHFDPEACSFRELLLEDGYNVYQSEAHGLPLHLPGQKSPHRDPAPRGPARFLPLPGLPPALPEPPGILAPQPPDVGSSDPLSLVCPGCQGRSPSYAS
modifications: intramolecular disulfide bond between C170 and C173
- Kd [1]: 0.0594 µM
- Activity in β-Klotho-ERK cells (EC50) [2]: 0.00214 µM

B2: FGF21 (170C/Ins-172A/173C) mutant 1412 (ligand)
chain: HPIPDSSPLLQFGGQVRQRYLYTDDAQQTEAHLEIREDGTVGGAADQSPESLLQLKALKPGVIQILGVKTSRFLCQRPDGALYGSLHFDPEACSFRELLLEDGYNVYQSEAHGLPLHLPGQKSPHRDPAPRGPARFLPLPGLPPALPEPPGILAPQPPDVGSSDPLSLVCPACQGRSPSYAS
modifications: disulfide bond introduced between 170C and 173C
notes: A small number of incorrect dimers is reported
- Kd [1]: 0.0699 µM
- Activity in β-Klotho-ERK cells (EC50) [2]: 0.00252 µM

B3: FGF21 (170C/Ins-172S/173C) mutant 1413 (ligand)
chain: HPIPDSSPLLQFGGQVRQRYLYTDDAQQTEAHLEIREDGTVGGAADQSPESLLQLKALKPGVIQILGVKTSRFLCQRPDGALYGSLHFDPEACSFRELLLEDGYNVYQSEAHGLPLHLPGQKSPHRDPAPRGPARFLPLPGLPPALPEPPGILAPQPPDVGSSDPLSLVCPSCQGRSPSYAS
modifications: disulfide bond introduced between 170C and 173C
notes: as for B2
- Kd [1]: 0.0646 µM
- Activity in β-Klotho-ERK cells (EC50) [2]: 0.00209 µM

B4: FGF21 (Del-P171) mutant 1408 (ligand)
chain: HPIPDSSPLLQFGGQVRQRYLYTDDAQQTEAHLEIREDGTVGGAADQSPESLLQLKALKPGVIQILGVKTSRFLCQRPDGALYGSLHFDPEACSFRELLLEDGYNVYQSEAHGLPLHLPGQKSPHRDPAPRGPARFLPLPGLPPALPEPPGILAPQPPDVGSSDPLSLVGSQGRSPSYAS
- Kd [1]: 0.0675 µM
- Activity in β-Klotho-ERK cells (EC50) [2]: 0.00148 µM

B5: FGF21 (121Q, 168L) mutant 1414 (ligand)
chain: HPIPDSSPLLQFGGQVRQRYLYTDDAQQTEAHLEIREDGTVGGAADQSPESLLQLKALKPGVIQILGVKTSRFLCQRPDGALYGSLHFDPEACSFRELLLEDGYNVYQSEAHGLPLHLPGQKSPHRDPAPRGPARFLPLPGLPPALPEPPGILAPQPPDVGSSDPLSLVGPSQGRSPSYAS
notes: Control that stands for wild-type FGF21; An alanine is added before His1 of mature FGF21; also called FGF21 control mutant 1414
- Kd [1]: 0.0512 µM
- Activity in β-Klotho-ERK cells (EC50) [2]: 0.00085 µM

B6: FGF21 (P171G) mutant 1407 (ligand)
chain: HPIPDSSPLLQFGGQVRQRYLYTDDAQQTEAHLEIREDGTVGGAADQSPESLLQLKALKPGVIQILGVKTSRFLCQRPDGALYGSLHFDPEACSFRELLLEDGYNVYQSEAHGLPLHLPGQKSPHRDPAPRGPARFLPLPGLPPALPEPPGILAPQPPDVGSSDPLSLVGGSQGRSPSYAS
notes: also called FGF21 mutant P171G
- Kd [1]: 0.0425 µM
- Activity in β-Klotho-ERK cells (EC50) [2]: 0.00115 µM

B7: FGF21 (170C/173C) mutant 1411 (ligand)
chain: HPIPDSSPLLQFGGQVRQRYLYTDDAQQTEAHLEIREDGTVGGAADQSPESLLQLKALKPGVIQILGVKTSRFLCQRPDGALYGSLHFDPEACSFRELLLEDGYNVYQSEAHGLPLHLPGQKSPHRDPAPRGPARFLPLPGLPPALPEPPGILAPQPPDVGSSDPLSLVCPSCGRSPSYAS
modifications: disulfide bond introduced between 170C and 173C
notes: Only a trace amount of incorrect dimers is reported
- Kd [1]: 0.0694 µM
- Activity in β-Klotho-ERK cells (EC50) [2]: 0.000999 µM

Source: patent publication US20240376168A1 (LETO LABORATORIES, published 2024)
